We go through 1 protein from article PMC7181223, “A DyP-Type Peroxidase of Pleurotus sapidus with Alkene Cleaving Activity” (Molecules, 2020).

One may read the Km as the substrate concentration at which the rate is half of its maximum. As a reminder, the kcat/Km is the turnover number divided by the Michaelis constant.

Substrate in the data set: CCn1c(=NN=c2sc3cc(S(=O)(=O)O)ccc3n2CC)sc2cc(S(=O)(=O)O)ccc21
Briefly: purified protein. Type of data set: biochemical, Pleurotus sapidus. To be noted: 100 µM H2O2, 25 mM MnSO4, optimal pH and temperature (pH 3.5, 40 °C).

B1: PsaPOX (DyP-type peroxidase of Pleurotus sapidus) (Pleurotus sapidus) (protein)
chain: MTTPAPPLDLNNIQGDILGGLPKKTETYFFFDVTNVDRFKANMTQFIPHVKTSAGIVKDREAIKEHKRQKRPGLVPMAAVNVSFSHLGLQKLGITDDLSDSSFTTGQRKDAEVLGDPGTKNGDTFTPAWEAPFLKDIHGVIFVAGDCHASVHKKLDEIKHIFGVGTSHASISEVTHVRGDVRPGQVSAHEHFGFLDGISNPAVDQFDQNPFPGQDSIRPGFILAKENGDSRAAARPDWAKDGSFLTFRYLFQMVPEFDDFLESNPIVLPGLSRKEGSELLGARIVGRWKSGAPIEITPLKDDPKLGADAQRNNNFDFGDSLVRGDQTKCPFAAHIRKTYPRNDLEGPPLNADIDNRRIIRRGIQFGPEVTSQEHHDKKTHHGRGLLFVCYSSSIDDGFHFIQQSWANAPNFPVNAVTSAGPIPPLDGVIPGFDAIIGQKVGGGIRQISGTNPNDPTTNITLPDQDFVIPRGGEYFFSPSISALKTKFAAGVASSAPQAQAPIST
notes: full-length ORF (1512 bp, 504 aa), C-terminal 6x His tag kept, S. cerevisiae alpha-factor secretion signal (pPIC9), Komagataella pfaffii GS115, Ni-NTA; monomeric
Regarding B1, the Km is 37 ± 4 µM and the specificity constant (kcat/Km) worked out at 184000 ± 5000 M⁻¹ s⁻¹.
